{"source": "patent US20050113304", "proteins": {"B1": {"name": "Botulinum toxin B (protein)", "chain 1": "PVTINNFNYNDPIDNNNIIMMEPPFARGTGRYYKAFKITDRIWIIPERYTFGYKPEDFNKSSGIFNRDVCEYYDPDYLNTNDKKNIFLQTMIKLFNRIKSKPLGEKLLEMIINGIPYLGDRRVPLEEFNTNIASVTVNKLISNPGEVERKKGIFANLIIFGPGPVLNENETIDIGIQNHFASREGFGGIMQMKFCPEYVSVFNNVQENKGASIFNRRGYFSDPALILMHELIHVLHGLYGIKVDDLPIVPNEKKFFMQSTDAIQAEELYTFGGQDPSIITPSTDKSIYDKVLQNFRGIVDRLNKVLVCISDPNININIYKNKFKDKYKFVEDSEGKYSIDVESFDKLYKSLMFGFTETNIAENYKIKTRASYFSDSLPPVKIKNLLDNEIYTIEEGFNISDKDMEKEYRGQNKAINKQAYEEISKEHLAVYKIQMCKSVK", "chain 2": "APGICIDVDNEDLFFIADKNSFSDDLSKNERIEYNTQSNYIENDFPINELILDTDLISKIELPSENTESLTDFNVDVPVYEKQPAIKKIFTDENTIFQYLYSQTFPLDIRDISLTSSFDDALLFSNKVYSFFSMDYIKTANKVVEAGLFAGWVKQIVNDFVIEANKSNTMDKIADISLIVPYIGLALNVGNETAKGNFENAFEIAGASILLEFIPELLIPVVGAFLLESYIDNKNKIIKTIDNALTKRNEKWSDMYGLIVAQWLSTVNTQFYTIKEGMYKALNYQAQALEEIIKYRYNIYSEKEKSNINIDFNDINSKLNEGINQAIDNINNFINGCSVSYLMKKMIPLAVEKLLDFDNTLKKNLLNYIDENKLYLIGSAEYEKSKVNKYLKTIMPFDLSIYTNDTILIEMFNKYNSEILNNIILNLRYKDNNLIDLSGYGAKVEVYDGVELNDKNQFKLTSSANSKIRVTQNQNIIFNSVFLDFSVSFWIRIPKYKNDGIQNYIHNEYTIINCMKNNSGWKISIRGNRIIWTLIDINGKTKSVFFEYNIREDISEYINRWFFVTITNNLNNAKIYINGKLESNTDIKDIREVIANGEIIFKLDGDIDRTQFIWMKYFSIFNTELSQSNIEERYKIQSYSEYLKDFWGNPLMYNKEYYMFNAGNKNSYIKLKKDSPVGEILTRSKYNQNSKYINYRDLYIGEKFIIRRKSNSQSINDDIVRKEDYIYLDFFNLNQEWRVYTYKYFKKEEEKLFLAPISDSDEFYNTIQIKEYDEQPTYSCQLLFKKDEESTDEIGLIGIHRFYESGIVFEEYKDYFCISKWYLKEVKRKPYNLKLGCNWQFIPKDEGWTE"}}, "target": "T1, Buforin I", "T1 chain": "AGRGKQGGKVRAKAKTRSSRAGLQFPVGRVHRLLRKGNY"}
{"protein": "B1", "values": [{"measurement": "substrate cleavage in the endopeptidase assay", "result": "B-I is not a substrate for BttxB"}]}
